Assay: yeast display, Sf9 membrane polyspecificity reagent, FACS + sequencing; frameworks hold sequencing errors
Summary of the method: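 In a synthetic yeast display library (Saccharomyces cerevisiae BJ5465), nanobody expression was induced with galactose for 36–48 hours. FACS gates were set low and high (top ~1%) using anti-HA fluorescence for expression and streptavidin fluorescence for binding of the Sf9 membrane reagent. Each polyreactivity label is drawn from the gate of origin.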

Sequence: QVQLVESGGGLVQAGGSLRLSCAASGSIFKTNAMGWYRQAPGKERELVAAIRASGGSTYYADSVKGRFTISRDNAKNTVYLQMNSLKPEDTAVYYCAARYWFKYYWGQGTQVTVSS
- polyreactivity (PSR sort gate): high polyreactivity

Sequence: QVQLVESGGGLVQAGGSLRLSCAASGFTFAFYAMGWYRQAPGKERELVAAISWDGVTTYYADSVKGRFTISRDHAKNTVYLQMNSQKPEDTAVYYCAADYPDYAGSFWPSGMYYWGQGTQVTVSS
- polyreactivity (PSR sort gate): low polyreactivity

Sequence: QVQLVESGGGIVQAGGSLRLSCAASGFTFYYKAMGWYRQAPGKERELVAAISRGGRTNYADSVKGRFTISRDNAKNTVYLEMNSLTPADTAVYYCAADRYNGVYAVYYYGYDYWGQGTKVTVSS
- polyreactivity (PSR sort gate): high polyreactivity

Sequence: QVQLVESGGGLVQAGGSLRLSCAASGRTFRYNTMGWYRQAPGKERELVARITRSGGSTYYADSVKGRFTISRDNAKNTVYLQMNSLKPEDTAVYYCAAVPILVYRWFQSYTGDYDYWGQGTQVTVSS
- polyreactivity (PSR sort gate): low polyreactivity

Sequence: QVQLVESLVGLVQAVGSLRLSCAAYGFIFAFDSMGCYRHAPRKERELVAAIRTGGSKNYADSVKGRFTISRDNAKTTVYLQMNSLKPEDTAVYNCAANGRVGFWRWERDYWGQGTQVTVSS
- polyreactivity (PSR sort gate): high polyreactivity

Sequence: QVQLEESGGGLVQAGVSLRLSCAASGRIFGVYTMGWYRQAPGKERELVAAISRTGGRTYYADSVKGRFTISRDNAKNTVYLQMNSLKPEDTAVYYCAADSRGEDYYYWGQGTQVTVSS
- polyreactivity (PSR sort gate): high polyreactivity

Sequence: QLQLVESGGGLVQAGGSLRLSCAASGRTFGYNVMGWYRQAPGKERELVAAISSSGGSTYYADSVKGRFTISRDNAKNTVYLQMNSLKPEDTAVYYCAAQVRYYQSGPMYYWGQGTQVTVSS
- polyreactivity (PSR sort gate): high polyreactivity

Sequence: QVQLVESGGGLVQAGGSLRLSCAASGSTFPKNAKGWYRPAPGKERELVAAINTGGSTYYADSVKGRFTISRDNAKNTVYLQMNSLKPEDTAVYYCAARDNYHRDVGHPYDYWGQGTQVTVSS
- polyreactivity (PSR sort gate): low polyreactivity

Sequence: QVQLVESCGGLVQAGGSLRLSCAASGFTFRNYVMGWYRQAPGKERELVAAISSTGGSTYYADSVKGRFTISRDNAKNTVYLQMNSLKPEDTAVYYCAARYVVQWPRYGFDYWGQGTQVTVSS
- polyreactivity (PSR sort gate): high polyreactivity

Sequence: QDQLVESGGGLVQAGGSLRLSCAASGGIFFYYVMGWYRKAPGKEREFVAAITSGGSTYYADSVKGRFTISGDNAKNTVYLQMNRLKPEDTAVYYCNARDVVDYSVWSRYAYDYWGQGTQVTVSS
- polyreactivity (PSR sort gate): low polyreactivity

Sequence: QVQLVESGGGLVQAGGSLRLSCAASGSTFNGYTMGCYRQAPGKEREFVATITFSDGSTYYADSVKGRFTISRDNAKNTVYLQMNSLKPEDTAVYYCNVDSPIGYDYWGQGTQVTVSS
- polyreactivity (PSR sort gate): low polyreactivity

Sequence: QVQLVESGGGLVQAGGSLRLSCAASGSTFTVNAMGWYRQAPGKERELVAAINWSGGSTYYADSVKGRFTISRDNAKNTVYLQMNSLKPEDTAVYYCNKDREPYGYWSFDYWGQGTQVTVSS
- polyreactivity (PSR sort gate): low polyreactivity

Sequence: QVQLVESGGGLVQAGGSLRLSCAASGRTFYRYAMGWYRQAPGKERELVAAISYSGGSTYYADSVKGRFTISRDNAKNTVYLQMNSLKPEDTAVYYCNARPVKASYVGYNYWGQGTQVTVSS
- polyreactivity (PSR sort gate): high polyreactivity

Sequence: QVQLVESGGGLVQAGGSLRLSCAASGSIFAGNAMGWYRQAPGKERELVAAISRRGGSTYYADSVKGRFTISRDNAKNTVYLQMNSLKPEDTAVYYCAAANWQRYYYWGQGTQVTVSS
- polyreactivity (PSR sort gate): high polyreactivity

Sequence: QVQLVESGGGLVQAGGSLRLSCASSGFTFYSYDMGWYRQAPGKERELVAAITWYGGSTYYADSVKGRFTISRDNAKNTVYLQMKSLKQEDTAVYYCAAELFPLQHFWVAYATRRYDYWGQCTQVTVSS
- polyreactivity (PSR sort gate): low polyreactivity

Sequence: QVQLVESGGGLVQAGGSLRLSCDASGRICGTNAMGWYRQAPGKERELVADITSGGSTNYADSVKGRFTISRDYAKNTVYVQMNSLKPEDTAVYYCAADVIGDLRWYRDEYWGQGTQVTVSS
- polyreactivity (PSR sort gate): low polyreactivity

Sequence: QVQLVESGGGLVQAGGSLRLSCAASGFIFGYNAMGWYRQAPGKERELVAAITWSGGSTYYADSVKGRFTISRDNAKNTVYLQMNSLKPEDTAVDYCNWPGEGDYWGQGTQVTVSS
- polyreactivity (PSR sort gate): low polyreactivity

Sequence: QVQLVESGGGLVQAGGSLRLSCAASGFIFSCYAMGWDRQAPGKERELVAAISWSGGSTYYADSVKGRFTISRDNAKNTVYLQMNSLKPEDTAVYYCAADRGYRRLFLNNVDYWGQGTQVTVSS
- polyreactivity (PSR sort gate): high polyreactivity

Sequence: QLQLVESGGGLVQAGGSLRLSSAASGITFRGYTMGWYRPAPGKERELVARIRSSDGSTYYADSVKGRFTISRDNAKNTVYLQMNSLKPEDTAVYYCNDDRRGRALKYYSWGQGTQVTVSS
- polyreactivity (PSR sort gate): low polyreactivity

Sequence: QVQLVESGGGLVQAGGSLRLICAASGILVYNAMGWYRQAPGKERELVAAISARGGRKYYADSVKGRFTISRDNAKNTVYLQMYSLKTEDTAVYYCATLETSGVNYWGQGTQVTVSS
- polyreactivity (PSR sort gate): high polyreactivity

Sequence: QVQLVETGGGLVQAGGSRRLICAATGRIFYWYAMGCYRQAPGKERELVATISSAGTTYYADSVKGRFTISRDNAKNTVYLQMNSLKQEDTAVYYCAVPRVGLHGIGSDYWGQGTQVTVSS
- polyreactivity (PSR sort gate): high polyreactivity

Sequence: QVHLVESGGGLVQAGGSLRISCSASGPSYTHYAMGWYRQAPGKERELVASICDGGGTHYADSVKGRFTISRDNAKNTVYLEMKSLKPEDTAVYYCATYRYPTRRYDYWGQGTQVPVSS
- polyreactivity (PSR sort gate): low polyreactivity

Sequence: QVQRVESGLGLVQAGCSLRLTCAASGRIFDGYAMGWYRPARGKERELVATISSGGFTYYADSVKGSFTISRDNAKNTFYLQMNILKPEDTAVYYCAATPICSGGWGDYWGQGTQVTVSS
- polyreactivity (PSR sort gate): low polyreactivity

Sequence: QVQRVESGGGLVQAGGSLRLSCAASGSTFLVNGMGWNRPAPGKERELVASITRDSSTYADSVKGRFTISRDNAKNTVYLQMNSLKPEDTAVYYCAATSRRRWSQQQGYGYYYWGQGTQVTVSS
- polyreactivity (PSR sort gate): high polyreactivity

Sequence: QVHLVESGGGLVQAGGSLLLSCAASGRILGPNAMGWYIQAPGKERELVAAINSGGSTNYADSVKGRFTISRDNAKNTVYLQMNSLKAEDTAVYYCNAVYGVYDFNYWGQGTQVTVSS
- polyreactivity (PSR sort gate): low polyreactivity

Sequence: QVQLVESGGGLVQAGGSLRLSCAASGRTFRYYAIGWYRQAPGKERELVAAISSSGASTYDAESVKGRFTISRDNAKYTVYLQMNSLKPEDTAVYYCRSGILFYSRYDYWGQGTQVTVSS
- polyreactivity (PSR sort gate): low polyreactivity

Sequence: QVQLVESGGGLVQAGGSLRLSSASSGRIFPDNTMGWYRQAPGKERELVAVITYSGGSTYYADSVKGRFTISRDNAKNTVYLQMNSLKPDDTAVYYCAARDYYIWFAEVDYWGQGTQVTVSS
- polyreactivity (PSR sort gate): low polyreactivity

Sequence: QVQLVESGGGLVQAGGSLRLSCAASGFTFYDYSMGWYRQAPGTERELVAASSDSGGITYYADSVKGRFTISRDNAKNTVYLQMNRLKPEDTAVYYCAADFATPGPEYDYWGQGTQVTVSS
- polyreactivity (PSR sort gate): low polyreactivity

Sequence: QVQLVESGGGLVQAGGSLRLSCAASGRIFKLYAMGWYRQAPGKERELVAAISTSAGSTNYADSVKGRFTISRDNEKNTVYLQMNSLKPEDTAVYYCAVAGVSTYYTYYYWGQGTQVTVSS
- polyreactivity (PSR sort gate): low polyreactivity

Sequence: QVQLVETGGGLVQAGGSLRLSCAASGRTMPYYAMGWYRQAPGKERELVATISSRGGSTYYADSVKGRFTISRDNAKNTVYLQMNSLKPEDTAVYYCAARGNTPRTRRYGYWGQGTQVTVSS
- polyreactivity (PSR sort gate): high polyreactivity

Sequence: QVQLVESGGGLVQAGGSLRLSCAASGSIFVPYAMGWYRQAPGKERELVATITISGGSTYYADSVKGRFTISRDNAKNTVYLQMNSLKPEDTAVYYCAAETTASYYKRTDDYDYWGQGTQVTVSS
- polyreactivity (PSR sort gate): low polyreactivity

Sequence: QVQLVDSGGGLVQAGGSLRLSCAASGFTFTPNAMGWYRQAPGTERELVAAISRRGGSTYYADSVKGRFTISRDNAKNTVYLQMNSLKPEDTAVYYCAASSSGRGGYWGQGTQVTVSS
- polyreactivity (PSR sort gate): high polyreactivity

Sequence: QVQLEESGGGLVQAGGSLRLSCAASGSTIHSYAMGWYRHAPGKERELVAAITTTGTRTYYADSVKGRFTISRDNAKNTVYLQMNSLKPEDTAVYYCNAQRLQAHRTSRRYGFWGQGTQVTVSS
- polyreactivity (PSR sort gate): high polyreactivity

Sequence: QVQLVESGGGLVQAGGSLRLSCAASGNTIKGYAMGLYRQAPGKERELVAAISWSGSSTYYADSVKGRFTISRDNAKYSVYLHKNSVKPEDTAVYYCNRKYLGRYASVYGYGYWGQGTQVTVSS
- polyreactivity (PSR sort gate): high polyreactivity

Sequence: QEQLEESGGGLVQAGGSLRLSCAASGFTLGRYAMGWYIQAPGKERELVAAINSSGGRTYYADSVNGRFTISRDTAKNTVYLQLNSLKPEDTAVYYCATVNVRGPPYDFWGQGTQVTVSS
- polyreactivity (PSR sort gate): high polyreactivity

Sequence: QVQLVESGGGLVQAGGSLRLSCAASGFIFGYNAMGWYRQAPGKERELVAAIRAGDGSTYYADSVKGRFTISRDNAKNTVYLQMNSLKPEDTAVYYCAAAWRQSGYRYGYWGQGTQVTVAS
- polyreactivity (PSR sort gate): high polyreactivity

Sequence: QGQLVESGGGLVQAGGSLPLSCAASGFTFRWNTMGWSRQGPGKEREFVASISQRGGRTFYADSVKGRFTISRDNAKNTVYIQMNCQKPEDTAVYFCNARGHRAVPGDELGYWGQGTQVTVSS
- polyreactivity (PSR sort gate): low polyreactivity

Sequence: QVQLVESGGGLVQAGGSLRLSCAASGRIFRSNAMGWYRQAPGKERELVAAISGSGSTTNYADSVKGRFTISRDNAKNTVYLQMNSLKPEDTAVYYCATGKRGVSGRGFRYDYWGQGTQVTVSS
- polyreactivity (PSR sort gate): high polyreactivity

Sequence: QVQLVESGGGLVQAGGSLRLSCAASGSIFVYYVMGWYRQAPGKDRELVAAINSDGDGTYYADSVKGRFTISRDNAKNTVYLQMNSLKPEDTAVYYCNALNPKSYDYWGQGTQVTVSS
- polyreactivity (PSR sort gate): low polyreactivity

Sequence: QVQLVESGGGLVQAGGSLRLSCAASGRTFWSYAMGWYRQAPGKEREFVAAISRRGGITYYADSVKGRFTLSRDNAKNTVYLQMNSLKPEDTAVYYCAKGAQSYYGGQVKYDYWGQGTQVTVSS
- polyreactivity (PSR sort gate): high polyreactivity

Sequence: QVQLVESGGGLVQAGGSLRLSCAASGFTFYYYAMGWYRQAPGTEMELVAALSRSGVRTYYADSVNGRFTISRDNGKNTVYLQMTSLKPEDTAVYYCAAEFARSRMNYWGQGTKVTVSS
- polyreactivity (PSR sort gate): high polyreactivity

Sequence: QVQLVESGGGLVQAGGSLRLSCAASGSTFAYNDMGWYRQAPGKERELVADIRSGGNTNYADSVKGRFTISRDNAKNTVYLQMNSLKPEDTAVYYCATDGYRIDVYHPDYRYDYWGQCTQVTVSS
- polyreactivity (PSR sort gate): low polyreactivity

Sequence: QVQLVESGGGLVQAGGSLRLSCAASGSTFTENTMGWYRQAPGKERELVAAITDSGGSTYYADSVKGRFTISRDNAKNTVYLQMNSLKPEDTAVYYCAADVQPDTRSTPEMDYWGQGTQVTVSS
- polyreactivity (PSR sort gate): low polyreactivity

— the nanobody polyreactivity screen of Harvey et al. (2022)
